# Data as given in US20210024620A1.
# Legend:
# [1] = molecular target: biotinylated human FcRn (human) (UniProt P55899); experiment: Biacore, biotin-captured hFcRn, pH 7.4
# [2] = molecular target: biotinylated human FcRn (p51 subunit residues 24-297 with C-terminal Avi-tag; beta2-microglobulin residues 21-119) (human) (UniProt P55899); experiment: Biacore SPR, pH 7.4, steady state
# [3] = molecular target: biotinylated cynomolgus FcRn (cynomolgus) (UniProt Q8SPV9); experiment: Biacore, biotin-captured cFcRn, pH 7.4, 1000 nM antibody
# [4] = molecular target: biotinylated human FcRn (p51 subunit residues 24-297 with C-terminal Avi-tag; beta2-microglobulin residues 21-119) (human) (UniProt P55899); experiment: Biacore SPR, pH 6.0
# [5] = molecular target: biotinylated cynomolgus FcRn (cynomolgus) (UniProt Q8SPV9); experiment: Biacore, biotin-captured cFcRn, pH 7.4
# [6] = molecular target: biotinylated cynomolgus FcRn (cynomolgus) (UniProt Q8SPV9); experiment: Biacore, biotin-captured cFcRn, pH 6.0
# [7] = molecular target: biotinylated human FcRn (human) (UniProt P55899); experiment: Biacore, biotin-captured hFcRn, pH 6.0
# [8] = molecular target: biotinylated human FcRn (human) (UniProt P55899); experiment: Biacore, biotin-captured hFcRn, pH 8.0, 1000 nM antibody
# [9] = molecular target: biotinylated cynomolgus FcRn (cynomolgus) (UniProt Q8SPV9); experiment: Biacore, biotin-captured cFcRn, pH 9.0, 1000 nM antibody
# [10] = molecular target: biotinylated cynomolgus FcRn (cynomolgus) (UniProt Q8SPV9); experiment: Biacore, biotin-captured cFcRn, pH 8.0, 1000 nM antibody
# [11] = molecular target: biotinylated human FcRn (human) (UniProt P55899); experiment: Biacore, biotin-captured hFcRn, pH 7.4, 1000 nM antibody
# [12] = molecular target: biotinylated human FcRn (human) (UniProt P55899); experiment: Biacore, biotin-captured hFcRn, pH 8.0
# [13] = molecular target: biotinylated human FcRn (human) (UniProt P55899); experiment: Biacore, biotin-captured hFcRn, pH 9.0, 1000 nM antibody
# [14] = molecular target: biotinylated cynomolgus FcRn (cynomolgus) (UniProt Q8SPV9); experiment: Biacore, biotin-captured cFcRn, pH 8.0
# [15] = molecular target: biotinylated human FcRn (human) (UniProt P55899); experiment: Biacore, pH 6.0, apparent KD
# rat FcRn (rat) [16] = molecular target: rat FcRn (rat) (UniProt P13599); experiment: Biacore, pH 6.0, apparent KD
# Chain of rat FcRn (rat) (P13599 23-298 limits assumed, chain 1 of 2): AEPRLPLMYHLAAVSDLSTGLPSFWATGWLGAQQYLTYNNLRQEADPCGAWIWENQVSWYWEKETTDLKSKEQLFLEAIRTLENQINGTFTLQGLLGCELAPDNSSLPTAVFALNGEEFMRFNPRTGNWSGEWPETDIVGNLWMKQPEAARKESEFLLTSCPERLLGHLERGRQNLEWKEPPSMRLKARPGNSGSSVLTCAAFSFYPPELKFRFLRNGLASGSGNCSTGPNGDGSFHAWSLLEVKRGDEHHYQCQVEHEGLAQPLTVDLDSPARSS
# Chain of rat FcRn (rat) (P07151 21-119 limits assumed, chain 2 of 2, further chain): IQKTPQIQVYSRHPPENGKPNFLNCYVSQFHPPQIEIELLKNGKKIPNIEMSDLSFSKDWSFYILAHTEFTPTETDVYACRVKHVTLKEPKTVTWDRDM
# [17] = molecular target: biotinylated human FcRn (human) (UniProt P55899); experiment: Biacore SPR, pH 6.0
# [18] = molecular target: biotinylated human FcRn (human) (UniProt P55899); experiment: Biacore SPR, pH 7.4, 1000 nM antibody
# rat FcRn (rat) [19] = molecular target: rat FcRn (rat) (UniProt P13599); experiment: Biacore SPR, pH 7.4, 1000 nM antibody
# [20] = molecular target: biotinylated human FcRn (human) (UniProt P55899); experiment: Biacore SPR, pH 6.0; remark: listed apart in the source
# rat FcRn (rat) [21] = molecular target: rat FcRn (rat) (UniProt P13599); experiment: Biacore SPR, pH 6.0
# [22] = molecular target: FcRn immobilised on the FcRn affinity column (biotinylated cynoFcRn in one experiment, biotinylated hFcRn in another); experiment: FcRn affinity chromatography, linear pH gradient; species of the immobilised FcRn not given
# [23] = molecular target: biotinylated human FcRn (human) (UniProt P55899); experiment: Biacore SPR, pH 7.4
# rat FcRn (rat) [24] = molecular target: rat FcRn (rat) (UniProt P13599); experiment: Biacore SPR, pH 7.4
# [25] = molecular target: biotinylated human FcRn (human) (UniProt P55899); experiment: Biacore, pH 6.0
# [26] = molecular target: biotinylated human FcRn (p51 subunit residues 24-297 with C-terminal Avi-tag; beta2-microglobulin residues 21-119) (human) (UniProt P55899); experiment: Biacore; affinity at pH 6.0 (M^-1) over steady state RU at pH 7.4
# [27] = molecular target: biotinylated human FcRn (human) (UniProt P55899); experiment: Biacore, pH 7.4, steady state response
# rat FcRn (rat) [28] = molecular target: rat FcRn (rat) (UniProt P13599); experiment: Biacore, pH 7.4, steady state response
# [29] = molecular target: biotinylated human FcRn (p51 subunit residues 24-297 with C-terminal Avi-tag; beta2-microglobulin residues 21-119) (human) (UniProt P55899); experiment: Biacore; inverse ratio (RU at pH 7.4 over affinity at pH 6.0)
# rat FcRn (rat) [30] = molecular target: rat FcRn (rat) (UniProt P13599); experiment: Biacore, pH 6.0
# [31] = molecular target: Human CD16a (FcγRIIIa V158) with C-terminal HPC4 tag (human) (UniProt P08637); experiment: Biacore, FcγRIIIa V158 captured, steady-state fit, apparent KD
# Chain of Human CD16a (FcγRIIIa V158) with C-terminal HPC4 tag (human) (P08637 17-208 F176V): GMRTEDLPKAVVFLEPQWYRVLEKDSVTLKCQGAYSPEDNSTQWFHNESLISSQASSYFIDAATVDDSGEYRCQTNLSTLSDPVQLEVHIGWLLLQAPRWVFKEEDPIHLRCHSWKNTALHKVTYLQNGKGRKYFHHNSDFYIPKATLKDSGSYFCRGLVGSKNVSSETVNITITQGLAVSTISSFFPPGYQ
# Chain of biotinylated human FcRn (p51 subunit residues 24-297 with C-terminal Avi-tag; beta2-microglobulin residues 21-119) (human) (P55899 24-297 limits assumed, chain 1 of 2): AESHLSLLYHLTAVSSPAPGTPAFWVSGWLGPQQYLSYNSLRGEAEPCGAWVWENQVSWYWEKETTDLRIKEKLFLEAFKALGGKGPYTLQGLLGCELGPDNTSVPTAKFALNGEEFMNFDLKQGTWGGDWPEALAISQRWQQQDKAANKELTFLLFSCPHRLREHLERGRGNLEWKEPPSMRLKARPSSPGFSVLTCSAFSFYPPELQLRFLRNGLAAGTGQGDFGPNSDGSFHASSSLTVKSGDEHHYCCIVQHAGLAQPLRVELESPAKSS
# Chain of biotinylated human FcRn (p51 subunit residues 24-297 with C-terminal Avi-tag; beta2-microglobulin residues 21-119) (human) (P61769 21-119 limits assumed, chain 2 of 2, further chain): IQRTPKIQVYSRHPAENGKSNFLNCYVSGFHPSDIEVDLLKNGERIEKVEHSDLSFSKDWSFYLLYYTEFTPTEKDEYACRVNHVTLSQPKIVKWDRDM
# Chain of biotinylated human FcRn (human) (P55899 24-297 limits assumed, chain 1 of 2): as the sequence (P55899 24-297 limits assumed, chain 1 of 2) above
# Chain of biotinylated human FcRn (human) (P61769 21-119 limits assumed, chain 2 of 2, further chain): as the sequence (P61769 21-119 limits assumed, chain 2 of 2, further chain) above
Substance,Kd [1] [µM],"Steady State Binding, pH 7.4 (RU) [2] [RU]",Steady State RU [3] [RU],Ka [4] [M⁻¹],Kd [5] [µM],Kd [6] [µM],Steady State RU [8] [RU],Steady State RU [9] [RU],Steady State RU [10] [RU],Steady State RU [11] [RU],Kd [12] [µM],Steady State RU [13] [RU],Kd [14] [µM],Kd [15] [µM],Kd (rat FcRn (rat) [16]) [µM],Kd [20] [µM],Kd (rat FcRn (rat) [21]) [µM],FcRn affinity column elution pH [22] [pH],Steady State RU [23] [RU],Steady State RU (rat FcRn (rat) [24]) [RU],other results
mAb1 YDQY (M252Y/T256D/T307Q/N434Y) (antibody),0.05,80.2,196,2.35e+08,0.056,0.0019,264,6.3,325,157,0.67,4.6,0.49,–,–,–,–,–,–,–,Kd [7]: 0.0027 µM
mAb1 T307Q (antibody),–,–,–,–,–,–,–,–,–,–,–,–,–,5.72,0.058,5.72,0.058,7.86,6.6,31.3,Kd [17]: > 3 µM; Steady State RU [18]: 6.4 RU; Steady State RU (rat FcRn (rat) [19]): 24.3 RU
mAb1 YTWY (M252Y/T307W/N434Y) (antibody),0.065,75.1,159,1.06e+08,0.07,0.0077,232,6.5,292,133,2.5,4,1.1,–,–,–,–,–,–,–,–
mAb1 YDTY (M252Y/T256D/N434Y) (antibody),0.076,65.4,134,9.01e+07,0.064,0.013,141,1.9,183,120,8.7,0.6,2.5,–,–,–,–,–,–,–,Kd [7]: 0.015 µM
mAb1 YDQF (M252Y/T256D/T307Q/N434F) (antibody),0.082,68.6,176,1.11e+08,0.095,0.0043,196,2.2,245,140,2.7,1.4,2.9,–,–,–,–,–,–,–,–
mAb1 N434Y (antibody; other documents disagree on this pair),–,–,–,–,–,–,–,–,–,–,–,–,–,0.137,–,0.137,–,–,25.5,–,koff [17]: 0.05 s⁻¹; kon [17]: 360000 M⁻¹ s⁻¹; Steady State RU [18]: 22.6 RU; koff [20]: 0.052 s⁻¹; kon [20]: 359000 M⁻¹ s⁻¹; koff [25]: 0.05 s⁻¹; kon [25]: 360000 M⁻¹ s⁻¹
mAb1 YDQN (M252Y/T256D/T307Q) (antibody),–,19.8,–,8.7e+06,–,–,–,–,–,–,–,–,–,0.115,0.0051,–,–,8.51,–,–,Ratio (pH 6.0/pH 7.4) [26]: 439000; Steady State RU [27]: 19.8 RU; Steady State RU (rat FcRn (rat) [28]): 65.2 RU; Ratio (pH 6.0/pH 7.4) [29]: 2.28e-06; koff [25]: 0.028 s⁻¹; kon [25]: 250000 M⁻¹ s⁻¹; koff (rat FcRn (rat) [30]): 0.0003 s⁻¹; kon (rat FcRn (rat) [30]): 5000 M⁻¹ s⁻¹; Kd [31]: 1.06 µM
mAb1 wildtype (WT) human IgG1 antibody,–,–,1.5,–,–,0.66,0.2,–,1.4,0.2,–,–,–,–,–,–,0.207,7.37,4.2,13,Kd [17]: 2.38 µM; Steady State RU [18]: 4.3 RU; Steady State RU (rat FcRn (rat) [19]): 12.2 RU; Kd [7]: 1.3 µM
mAb1 YEQY (M252Y/T256E/T307Q/N434Y) (antibody),0.079,–,157,–,0.08,0.0037,213,3.4,264,136,2.1,2.4,2.5,–,–,–,–,–,–,–,Kd [7]: 0.0048 µM
mAb1 YTTY (M252Y/N434Y) (antibody),0.065,54.1,147,1.2e+08,0.083,0.02,188,1,238,125,3.3,–,1.3,–,–,0.00832,0.00026,–,54.1,67.9,–
mAb1 YTWN (M252Y/T307W) (antibody),–,15.9,–,8.47e+06,–,–,–,–,–,–,–,–,–,0.118,0.0052,0.118,0.00521,8.14,15.9,66.1,Ratio (pH 6.0/pH 7.4) [26]: 533000; koff [20]: 0.057 s⁻¹; kon [20]: 483000 M⁻¹ s⁻¹; koff (rat FcRn (rat) [21]): 0.00109 s⁻¹; kon (rat FcRn (rat) [21]): 208000 M⁻¹ s⁻¹; Steady State RU [27]: 15.9 RU; Steady State RU (rat FcRn (rat) [28]): 66.1 RU; koff [25]: 0.057 s⁻¹; kon [25]: 480000 M⁻¹ s⁻¹; koff (rat FcRn (rat) [30]): 0.0011 s⁻¹; kon (rat FcRn (rat) [30]): 21000 M⁻¹ s⁻¹; Kd [31]: 0.896 µM
mAb1 YEQN (M252Y/T256E/T307Q) (antibody),–,15.2,–,4.59e+06,–,–,–,–,–,–,–,–,–,0.218,0.0078,–,–,8.12,–,–,Ratio (pH 6.0/pH 7.4) [26]: 302000; Steady State RU [27]: 15.2 RU; Steady State RU (rat FcRn (rat) [28]): 61.8 RU; Ratio [29]: 3.31e-06; koff [25]: 0.041 s⁻¹; kon [25]: 190000 M⁻¹ s⁻¹; koff (rat FcRn (rat) [30]): 0.0004 s⁻¹; kon (rat FcRn (rat) [30]): 5000 M⁻¹ s⁻¹; Kd [31]: 1.62 µM
mAb1 T307W (antibody),–,–,–,–,–,–,–,–,–,–,–,–,–,8.74,0.111,8.74,0.111,7.75,–,21.9,Kd [17]: > 3 µM; Steady State RU (rat FcRn (rat) [19]): 19.2 RU
mAb1 T256D (antibody),–,–,–,–,–,–,–,–,–,–,–,–,–,6.7,0.086,6.7,0.086,7.82,–,23.2,Kd [17]: > 3 µM; Steady State RU (rat FcRn (rat) [19]): 30.4 RU
YTEKF hIgG1 benchmark (M252Y/S254T/T256E/H433K/N434F) (antibody),0.074,–,152,–,0.076,0.0083,–,3.8,268,132,2.4,2.7,3.2,–,–,–,–,–,–,–,Kd [7]: 0.015 µM
mAb1 YEWY (M252Y/T256E/T307W/N434Y) (antibody),0.061,–,162,–,0.063,0.0061,245,5.4,303,141,1.9,–,1.3,–,–,–,–,–,–,–,–
mAb1 YETN (M252Y/T256E) (antibody),–,9.8,–,7.81e+06,–,–,–,–,–,–,–,–,–,0.128,0.0084,0.128,0.00843,7.83,9.8,55.1,Ratio (pH 6.0/pH 7.4) [26]: 797000; koff [20]: 0.0757 s⁻¹; kon [20]: 592000 M⁻¹ s⁻¹; koff (rat FcRn (rat) [21]): 0.00273 s⁻¹; kon (rat FcRn (rat) [21]): 324000 M⁻¹ s⁻¹; Steady State RU [27]: 9.8 RU; Steady State RU (rat FcRn (rat) [28]): 55.1 RU; Ratio (pH 6.0/pH 7.4) [29]: 1.25e-06; koff [25]: 0.076 s⁻¹; kon [25]: 590000 M⁻¹ s⁻¹; koff (rat FcRn (rat) [30]): 0.0027 s⁻¹; kon (rat FcRn (rat) [30]): 32000 M⁻¹ s⁻¹; Kd [31]: 0.878 µM
